# Laboratory results published in patent US20030008808.
# pKd: −log10 of the molar value.
# Test system: 30S ribosomal subunit (activated, mRNA-programmed; ribonucleoprotein)
# Test: filter
# Conditions: CMN buffer
substance,measurement,setting,value
native yeast tRNAPhe(GmAA),pKd,"native modifications incl. Gm34, poly(U)-programmed, 20 mM MgCl2",6.99
human ASLLys3(SUU),pKd,"s2U at position 34, poly(A)-programmed, also bound poly(AG)-programmed, 20 mM MgCl2",6.75
yeast ASLPhe(GAA),pKd,"poly(U)-programmed, 20 mM MgCl2",6.87
native E. coli tRNALys(SUU),pKd,"native modifications incl. mnm5s2U34, poly(A)-programmed, 20 mM MgCl2, 100 mM NH4Cl, pH 7.2, 37 C then ice",7.15
